# Patent US20250197490A1 (HBM ALPHA THERAPEUTICS, published 2025)
# T1: corticotropin-releasing hormone (CRH) peptide (human and mouse, UniProt P01143 145-185 (rat entry), not fully specified)
# T1 peptide: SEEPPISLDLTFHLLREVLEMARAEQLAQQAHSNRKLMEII
# T2: biotinylated CRH (human and mouse, UniProt P01143 145-185 (rat entry), not fully specified; biotin; which end is not stated for the result (NT-biotin and CT-biotin forms were used))
# T2 construct: also called biotin-CRH; CRH (NT biotin)
# T2 peptide: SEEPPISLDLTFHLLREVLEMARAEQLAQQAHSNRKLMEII
# T3: N-Terminal CRH peptide (N-terminal region plus central region, CT biotin) (human and mouse, C-terminal K-Biotin)
# T3 construct: also called N-Ter-CRH
# T3 peptide: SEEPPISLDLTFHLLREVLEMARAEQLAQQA
# T4: human UCN2 peptide, biotinylated (human, UniProt Q96RP3 72-109, limits assumed, biotin at N- or C-terminus)
# T4 construct: also called hUCN2 (NT Biotin); hUCN2 (CT Biotin)
# T4 peptide (looked up): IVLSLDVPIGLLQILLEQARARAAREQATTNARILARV
# T5: human UCN3 peptide, biotinylated (human, UniProt Q969E3 120-157, biotin at N- or C-terminus)
# T5 construct: also called hUCN3 (NT Biotin); hUCN3 (CT Biotin)
# T5 peptide (looked up): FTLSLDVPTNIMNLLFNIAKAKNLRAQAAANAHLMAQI
# T6: human UCN1 peptide, biotinylated (human, UniProt P55089 83-122, biotin at N- or C-terminus)
# T6 construct: also called hUCN1 (NT Biotin); hUCN1 (CT Biotin)
# T6 peptide (looked up): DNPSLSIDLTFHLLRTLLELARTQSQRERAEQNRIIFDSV
# T7: CRH (Central Region, NT Biotin) (N-terminal Biotin-K; C-terminal NH2)
# T7 construct: also called Central CRH
# T7 peptide: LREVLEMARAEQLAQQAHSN
# T8: CRH (Central Region, CT Biotin) (C-terminal K-Biotin)
# T8 construct: also called Central CRH
# T8 peptide: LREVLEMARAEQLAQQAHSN
# T9: CRH (C-Terminal Region, NT Biotin) (N-terminal Biotin-K; C-terminal NH2)
# T9 construct: central region plus C-terminal region of CRH; also called C-Terminal CRH; C-Ter-CRH
# T9 peptide: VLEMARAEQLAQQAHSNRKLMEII
# B1: PR302334-26 (antibody, human IgG1, kappa, V domains shown)
# VH: EVQLVESGGGLVQPGGSLRLSCAASGFTFSTYAMSWVRQAPGKGLEWVASIRSGGTTYYPDSVKGRFTISRDNSKNSLYLQMNSLRAEDTAVYYCTRGIDWGQGTTVTVSS
# VL: DIVMTQSPDSLAVSLGERATINCKASQSVNNDVAWYQQKPGQPPRLLIYYASNRYTGVPDRFSGSGSGTDFTLTISSLQAEDLAVYFCQQDYSSWTFGGGTKVEIKR
# Key:
# [1] = biological target: T1, corticotropin-releasing hormone (CRH) …; assay: cell-based or functional assay
# [2] = biological target: T2, biotinylated CRH; assay: ELISA, CRH (NT biotin)
# Method in brief: (§1)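 Streptavidin capture plate (2 μg/ml in PBS, overnight, 4° C); HRP goat anti-human IgG (H+L) 1 h at 37° C; TMB 15 min RT, stop, OD450 nm.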
# [3] = biological target: T2, biotinylated CRH; assay: ELISA, CRH (CT biotin)
# Method in brief: as §1
# [4] = biological target: T3, N-Terminal CRH peptide (N-terminal …); assay: ELISA, N-Ter-CRH (CT-biotin) on streptavidin
# Method in brief: as §1
# [5] = biological target: T4, human UCN2 peptide, biotinylated; assay: ELISA, hUCN2 (NT biotin) and (CT biotin)
# [6] = biological target: T5, human UCN3 peptide, biotinylated; assay: ELISA, hUCN3 (NT biotin) and (CT biotin)
# [7] = biological target: T6, human UCN1 peptide, biotinylated; assay: ELISA, hUCN1 (NT biotin) and (CT biotin)
# Procedure: Streptavidin (Thermo, Cat: 21125) was diluted in PBS with a concentration of 2 μg/mL. 100 μL of diluted streptavidin was added per well to ELISA microplates, and the plates were incubated overnight at 4° C. Plates were blocked with ELISA blocking solution (containing 2% w/v BSA, 0.05% (v/v) Tween-20, pH 7.4 PBS buffer) at 37° C. for 1 hour, and then incubated with either 1 μg/mL hUCN1 (NT Biotin), hUCN1 (CT Biotin), hUCN2 (NT Biotin), hUCN2 (CT Biotin), hUCN3 (NT Biotin), or hUCN3 (CT Biotin) for 1 hour at 37° C. […] Plates were subsequently washed and incubated with HRP-conjugated goat anti-human IgG (H+L) antibody (Jackson, Cat: 109-035-088) at 37° C. for 1 hour. 100 μl of TMB Substrate (Biopanda, Cat: TMB-S-003) was added, and the plates were incubated at room temperature for 15 minutes. 100 μL of ELISA stopping solution (Solarbio, Cat #: C1058) was then added to terminate the reaction, and the OD450 nm was determined by an ELISA plate reader (Molecular Devices, Spectra max 384 plus).
# [8] = biological target: T7, CRH (Central Region, NT Biotin); assay: ELISA, CRH central region peptide (NT biotin)
# Method in brief: as §1
# [9] = biological target: T8, CRH (Central Region, CT Biotin); assay: ELISA, CRH central region peptide (CT biotin)
# Method in brief: as §1
# [10] = biological target: T9, CRH (C-Terminal Region, NT Biotin); assay: ELISA, CRH C-terminal region peptide (NT biotin)
# Method in brief: as §1
binder,measurement,setting,value
B1,hCRHR1-Luc 0.5 nM CRH IC50,[1],1.1 nM
same,EC50 (read off the curve),[2],~0.03 nM
same,EC50 (read off the curve),[3],~0.03 nM
same,EC50,[4],0.029 nM
same,binding result,[5],no binding (tested: 100 nM)
same,binding result,[6],no binding (tested: 100 nM)
same,binding result,[7],no binding (tested: 100 nM)
same,binding result,[8],no binding (tested: 100 nM)
same,binding result,[9],no binding (tested: 100 nM)
same,binding result,[10],no binding (tested: 100 nM)
